“And” between values parts separate entries of the source, which are not always exact repeats. Equal values may be shown once.

Test [1] deals with Clostridium difficile toxin A (Clostridium difficile) (UniProt P16154).
Test [2] shares this target. The test can be described thus: SPR. Background: Surface plasmon resonance follows binding to a sensor surface in real time, without labels.

B1: A26.8 VHH (parent) (VHH)
VHH: QVKLEESGGGLVQAGGSLRLSCAASERTFSRYPVAWFRQAPGAEREFVAVISSTGTSTYYADSVKGRFTISRDNAKVTVYLQMNNLKREDTAVYFCAVNSQRTRLQDPNEYDYWGQGTQVTVSS
In the case of B1, in test [1], the other was 70 nM and 60%. In addition, in test [2], the Kd is 18.7 nM, the koff is 0.034 s⁻¹ and the kon stood at 1.8e+06 M⁻¹ s⁻¹.

The term Kd denotes the equilibrium constant for the complex coming apart. By koff is commonly meant the rate constant with which the complex falls apart. For orientation: kon means the second-order rate constant of association. A low value points to slow association.
